Experimental data reported in CN108239149A (NANJING LEGEND BIOTECHNOLOGY CO LTD, dated 2018).

Key:
[1] = target: 人PD-L1 expressed on cells (表达PD-L1的CHO细胞) (human) (UniProt Q9NZQ7); assay: cell-based or functional assay
[2] = target: T1, 融合至人IgG1 Fc段的人PD-L1胞外结构域的重组蛋白PD-L1-Fc (GenScript, Z03371) (human, UniProt Q9NZQ7 19-238, biotin-labelled in the PD-1 competition ELISA (site not stated)); assay: indirect ELISA, PD-L1-Fc coated at 0.5 μg/ml, antibody titrated
T1 construct: extracellular domain; Bought reagent (GenScript Z03371); also called 重组PD-L1-Fc; 生物素标记的PD-L1-Fc; not shown: Human IgG1 Fc segment
T1 sequence (Q9NZQ7 19-238 limits assumed, one chain of several): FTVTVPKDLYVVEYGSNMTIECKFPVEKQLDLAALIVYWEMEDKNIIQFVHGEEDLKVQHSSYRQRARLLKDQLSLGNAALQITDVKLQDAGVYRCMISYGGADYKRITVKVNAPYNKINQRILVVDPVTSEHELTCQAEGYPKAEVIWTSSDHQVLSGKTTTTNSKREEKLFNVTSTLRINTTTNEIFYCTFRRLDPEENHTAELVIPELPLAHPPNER

[3] = target: T1, 融合至人IgG1 Fc段的人PD-L1胞外结构域的重组蛋白PD-L1-Fc …; assay: competition ELISA: antibody titrated against biotinylated PD-L1-Fc binding to coated human PD-1

Row | Binder | IL-2分泌 (混合淋巴细胞反应) EC50 [1] | 相对光单位(RLU) NFAT报告细胞 EC50 [1] | EC50 [2] | IC50 [3]
1 | 18B7F4G8 (antibody, V domains shown, Mouse hybridoma clone; Detected with goat anti-mouse IgG) VH: DVQLQESGPDLVKPSQSLSLTCTVTGYSITSGYTWHWIRQFPGNKLEWMGYIHYSGSTKYNPSLKSRFSITRDTSKNQFFLQLNSMTAEDTATYYCARNSLFASWGHGTLVTVSA VL: DIVLTQSPASLAVSLGQRATISCRASESVDTYGDSFMHWFQQKPGQPPKLLIYRASNLESGIPARFSGSGSRTDFTLTINPVEADDVATYYCQQSNEAPYTFGGGTKLEIK | 0.359 µg/mL | 0.359 µg/mL | 0.00531 µg/mL | 
2 | 29A8H8C7 (antibody, V domains shown, Mouse hybridoma clone; Made recombinantly as variable region + constant region in HEK293-6E) VH: DVQLQGSGPGLVKPSQSLSLTCTVTGYSITSDFAWDWIRQFPGNKLEWMGHIRFSGTTSYNPSLKSRISITRDTSKNQFFLQLNSVTSEDTATYYCARSTLITKGFFDYWGQGTTLTVSS VL: DIVMTQSHKFMSTSVGGRVSITCKASQDVSPAVAWYQQKPGQSPKLLIYWASTRHTGVPDRFTGSGSGTDFTLTISSVQTEDLALYYCQQHYSTPWTFGGGTKLEIK | 0.101 µg/mL | 0.751 µg/mL | 0.00498 µg/mL | 0.39 µg/mL
3 | 42G2D7C3 (antibody, V domains shown, Made recombinantly as variable region + constant region; also called 42G2D7D3) VH: DVQLLESGPGLVKPSQSLSLTCSVTGYSITSGYYWNWIRQFPGNNLEWMGSINYDGSNDYNPSLQDRISITRDTSKNQFFLKLNSVTTEDTATYYCARRLDYWGQGTTLIVSS VL: QIVLTQSPAIMSASPGEKVTISCSASSFINYMYWYQQKPGSSPKPWILRTSTLASGVPARFSGSGSGTSYSLTISSMEAEDAATYYCQQYHSYPLTFGAGTKLELK | 0.235 µg/mL | 1.17 µg/mL | 0.00458 µg/mL | 0.48 µg/mL
4 | 53C1F3D4 (antibody, V domains shown, Mouse hybridoma clone; Made recombinantly as variable region + constant region in HEK293-6E) VH: QVQLQQSGNELARPGASVRLSCKASGYIFTGYGITWVRQRPGQGLEWIGEIFPRRVNTYYSEKFKGRATLTADISSSTAYMELRSLTSEDSAVYFCARDYDPYFALDYWGQGTSVTVSS VL: DIVMTQSHKFMSTSVGDRVSITCKASQDVSTAVDWYQQKPGQSPKLLIYSASYRYTGVPDRFTGSGSGTAFTFTISGEQAEDLAVYYCQQHYSIPFTFGGGTKLEIK | 0.0947 µg/mL | 0.576 µg/mL | 0.00467 µg/mL | 0.32 µg/mL
5 | 51F3D2G4 (antibody, V domains shown, Mouse hybridoma clone; Made recombinantly as variable region + constant region in HEK293-6E) VH: QVQLQQSGAELARPGASVRLSCKASGYIFTGYGISWVKQRTGQGLEWIGEIFPRTANTYFNEKFKGKATLTADKSSSTAYMELRSLTSEDSAVYFCARDYDPYYALDYWGQGTSVTVSS VL: DIVMTQSHKFMSTSVGDRVTITCKASQDVSTAVDWYQQKPGQSPKLLIYSASYRYTGVPDRFTGSGSGTAFTFTISSEQAEDLAVYYCQQHYSVPFTFGGGTKLEIK | 0.209 µg/mL | 0.883 µg/mL | 0.0063 µg/mL | 0.4 µg/mL
